Values quoted from earlier work in publication PMC10532153, “Interactions of the N- and C-Terminal SH3 Domains of Drosophila Drk with the Proline-Rich Peptides from Sos and Dos” (International Journal of Molecular Sciences, 2023).

Target: T1, Drk-CSH3 (Drosophila melanogaster, UniProt Q08012)
T1 construct: its N- and C-terminal SH3 domains (Drk-NSH3 and Drk-CSH3, respectively); made in house
Details: previous paper on Drk-CSH3; read-out: Kd for Drk-CSH3, nine-residue (“shorter”) Dos peptides
Source text: Table 1 The calculated dissociation constants (Kds) for Sos- and Dos-derived peptides.

T1 sequence (Q08012 152-211 limits assumed): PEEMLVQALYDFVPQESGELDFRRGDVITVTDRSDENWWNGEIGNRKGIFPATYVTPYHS

Kd [mM]	Sequence
~1.4	PPVNRKLKP [shorter Dos-S1]
~4.8	PSVDRKCKP [shorter Dos-S2]
